Measured values: the nanobody polyreactivity screen of Harvey et al. (2022)

Assay: yeast display, Sf9 membrane polyspecificity reagent, FACS + sequencing; frameworks hold sequencing errors
How it was run: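 Polyreactivity labels are assigned by the sorting gate from which each nanobody was recovered. The gates were low and high (top ~1%), set on anti-HA fluorescence for expression and streptavidin fluorescence for reagent binding. Before sorting, galactose-induced (36–48 hours) yeast display cells were stained for 1 hour at 4 °C with 10% biotinylated, detergent-solubilized Sf9 membrane reagent.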

Sequence	polyreactivity (PSR sort gate)
QVQLVESGGRLVQAGGSLRISRAASGFTFPSYTMGWYRQAPGKERELVAAITSSGGNTYYADSVKGRFTISRDNAKNTVYLQMNSLKPEVTAVYYCATVSVRWPSNDHVRYDYWGQGTQVTVSS	low polyreactivity
QVQLVESGGGLVQAGGSLRLSCAASGSIFDINAMGWYRPAPGKERELVADIRGGDSTNYADSVKGRFTISRDNATNTVYLQMNSLKPEDTAVYYSAARWRRSKYGVYPQRPYDYWGQGTQVTVSS	high polyreactivity
QVQLVESGGGLVQAGGSLRLSCAASGLIFRAYAMGWYRQAPGKERELVAAITRSGGRTYYADSVKGRFTISRDNAKNTVYLQMNSLTPEDTAVYYCAAEYGNTYSSYTYDYWGQGTQVTVSS	high polyreactivity
HVQLVESGGGLVQAGGSLRLSCAASGRIFAPYDMGWYRPAPGNERELVAAISRSGGSTYYADSVKGRFTSSRDNAKNTVYLQMNSLKPEDTAVYYCAASYPGRYWLYRYEYWGQGTQVTVSS	high polyreactivity
QVQLVESGGGLVQAGGSLRLSCAASGFIFARYAMGWYRQAPGKERELVASITGRGTSTRYADSVKGRFTISRDNAKNTVYLQMNSLKPEDTAVFYCNAARLSYSWVPSEMDYWGQGTQVTVSS	high polyreactivity
QVQLVESGGGLVQAGGSLRLSCAASGSTFPLNAMAWYRHAPGKERELVAAITWSGANTYYADSVKGRFTISRDNAKNTVYLQMNSLKPEDTAVYYCAAGSYAGFAVIGYYYWGQGTQVTVSS	low polyreactivity
QVQLVESGGGLVQAGGSLRLSCAASGSTFRWNAMGWYRQAPGKERELVAAITRSGGSTYYADSVKGRFTISRDNAKNTVYLQMNSLKPEDTAVYYCAAGYYTARRIRSDYWGQGTQVTVSS	high polyreactivity
QVQLVESGGGLVQAGGSLRLSCAASGSTFPANAMGWYRQAPGKERELVATISWSGGRTYYADSVKGRFTISRDNAKNTVYLQMNSLKPEDTAVYYCAANGHGRVYFGGGNWGQGTQVTVSS	high polyreactivity
QVQLVESGGGLVQAGGSLRLSCAASGFIFWFYAMGWYRQAPGKEREFVATISRGGSKNYADSVKGRFTISRDNAKNTVYFKINSLKAEDTEVYYCAAARSSYWKTIRAFTMDYWGQGTQVTVSS	high polyreactivity
QGQLVETGGGLVQAGGSLRLSCGASGSTFLWNTIGWYRQGPRKERELVAEIRTSGGGTYYADSVKGRFTISRDNAKNTVYLQMNSLKPEDTEVYYCYADPKWEMGSWGQGTQVTVSS	low polyreactivity
QVQLVESGGGLVHAGGSLRLSCAASGSIFRGYAMGWYRQAPGKERELVAAISRDGGSTYYADSVKGRFSISRDNAKNTVYLQMNSLKPEETAVYYCAADYVAYATYGDGDYWGQGTQVTVSS	high polyreactivity
QVQLVESGGGLVQAGGSLRLSCAASGFIFYYYTMGWYRQEPGKEREFVAAITYSGGRTYYADSVKGRFTISRDNAKNTVYLQMNSLKPEDTAVYYCAVALFETGHYYWGQGTQVTVSS	high polyreactivity
QVQLVESGGGLVQAGGSLRLSCAASGSIFEPYAMGWYRQAPGKERELVAAISSGTSTYYADSVKGRFTISRDNAKNTVYLQLNSLKPEDTAVYYCAAEEQIPWTNNAKYYYWGQGTQVTVSS	low polyreactivity
QVQLVESGGGLVQAGGSLRLSCAASGIIFHFNDMGWYRQAPGKERELVAAIDSTGSTNYADSVKGRFTISRDNAKNTVYLQMNSLKPEDTAVYYCAVLNHRVDSVLTRYYYWGQGTQVTVSS	low polyreactivity
QVQLVESGGGLVQAGGSLRLSCAASGRTFGEYAMGWYRQAPGKERELVAAISSAGSTYYADSVKGRFTISRDNAKNTVYLQMNSMKPDDTAVYYCASSRKYGYGYWGQRTQVTVSS	high polyreactivity
QVQLVESGGGLVQAGGSLRLSCAASGSIFGYNAMGWSRQAPGKERELVAGITSGTSTYYADSVKGRFTISRDNAKYTVYLQMNSLKPEDTEVYYCARTSYRFYRKRYYWGQGTQVTVSS	high polyreactivity

Sequence	polyreactivity (PSR sort gate)
QGQLVESGGGLVQAGGSLRLSCAASGFTFYKNTMGWYRQAPGKERELVAAISSSGSSTYYADSVKGRFTISRDNAKNTVYLQMISLKPEDTAVYYCAACSFAYHDDYWGQGTQVTVSS	high polyreactivity
QVQLVESGGGLVHAGGSLRLSCAASGRTFGTYAKGWYRQAPGKERELVAAISSRGGSTYYADSVKGRFTISRDNAKNTVYLQMNSLKPEDTAVYYCAQRVKDGSGYWGQGTQVTVSS	high polyreactivity
QVQLVESGGGLVQAGGSLRLICAASGFTFARYAMGWYRQAPGKERELVAAITSAGSTSYADSVKGRFTISRDNAKNTVYLQMNSLKPEDTAVYYCAAPFTVRYNYWGQGTKVTVSS	high polyreactivity
QVQIEDSGGGLVQAGGSLRLICAASGFTFINNDMGWYRQAPGKERELVAAISDSDGTTYYADSVKGRFTISRDNAKNTVYLQMNSLKPEDTEVYYCAADVVPTWEDEYWGQGTQVTVSS	low polyreactivity
QVQLVESGGGLVQAGGSIRLSCAASGSIFAPYAMGSYRQATGKVREFVAAISWSGGGTYYADSVQGRFTISRDNAKNTVNLQMNSLKPEDTAVYYCAAYRNKESIFRTILDYWGQGTQVTVSS	low polyreactivity
QVQLLESGGGLVQAGGSLRLSCAASGRIFTPYAMGWYRQAPGKERELVAVIRDGSTYYADSVKGRFTISRDNAKNTVYLQMNSLKPEDTAVYYCAADVGYSPYFFGGTRYYKYDYWGQGTQVTVSS	low polyreactivity
QVQLVESGGGLVQAGGSLRLSCAASGSTFTDNAMGWYRQAPGKERELVAAITSGSSTNYADSVKGRFTISRDNAKNTVYLQMNSLKPEDTAVYYCATCQEPQYSTGDYWGQGTQVTVSS	low polyreactivity
QVQLVESGGGLVQAGGSLRLSCAASGRTFGLYAMGWYRQAPGKERELVATITTSDIITYYADSVKGRFTISRDNAKNSVYLQMNSLKPEDTAVYYCASGGYDDFSSRPANDYWGQGTQVTVSS	low polyreactivity
QVQLVESAGGLVQAGGSLRLSCAASGSTLRAYAMGWYRQAPGKERELVAAISGSGDSTYYADSVKGRFTISRDNAKNTVYLQMNSLKPEDTAVYYCNKGLFSTGNIPYYLIVYLEYNYWGQGTQVTVSS	low polyreactivity
QVQLVESGGGLVQAGGSLRLSCAASGSNFVYNAMGWYRQAPGKERELVAAISGSGDSTYYADSVKGRFTISRDNAKNTVYLQMNSLKPEDTAVYYCAARMSTADFYKGDYWGQGTQVTVSS	low polyreactivity
QVQLVESGGGLVQEGGSLRLSCAASGSTFSYNAMGWYRQAPGKERELVAAITSGSSTNYADSVKGRFTISRDNAKNTVYLQMNSLKPEDTAVYYCAADGYQDKYYWLETWVGYWGQGTQVTVSS	low polyreactivity
QVQLVESGGGLVQAGGSLRLSCAASGRTFVYYAMGWYRQAPGKERELVATISRRGGGTYYADSVKGRFTISRDNEKNTVYLQMNSLKPEDTAVYYCAAAFSYYPRYDYWGQGTQVTVSS	high polyreactivity
QVQLVESGGGLVQAGGSLRLSCAASGRIYEYMGWYRQAPGKERELVAAISWRGGRTYYADSVKGRFTISRDNAKNTVYLQMNSLKPEDTAVYYCAAKTTYRYGYWGQGTQVTVSS	high polyreactivity
QVQLVESGGGLVQAGGSLRLSCAASGSTFYYYAMGCYRQAPGKERELVASITTGGGSTYYADSVKGRFTISRDNAKNTVYLQLNSLKPEDTAVYYCGAALAYYYWWYDYWGQCTQVTVSS	low polyreactivity
QVQLVESGGGLVQAGGSLRLICAASGSIFYGNTMGWYRQARGKERELVAAISSGGSTYYADSVKGRFTISRDNAKNSVYLQMNSLKPEDTAVYYCAREDYSHSFLTYDYWGQGSQVTVSS	low polyreactivity
QVQLVESGGGLVQAGGSLRLSCAASGSIFYENVMGWYRQAPGKERELVAGISRSGGRTYYADSVKGRFTISRDNAKNTVYLQMNSLKPEDTAVYYCNAARVYLSEWGQGTQVTVSS	high polyreactivity
